Literature values in PMC6667139.

Target: TGFβ receptor I and II (Homo sapiens) (UniProt P36897)
Sequence (P36897 34-126, chain 1 of 2): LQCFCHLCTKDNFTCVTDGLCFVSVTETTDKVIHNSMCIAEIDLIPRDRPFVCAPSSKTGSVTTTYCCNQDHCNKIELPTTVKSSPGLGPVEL
Sequence (partner, as listed by the source, chain 2 of 2): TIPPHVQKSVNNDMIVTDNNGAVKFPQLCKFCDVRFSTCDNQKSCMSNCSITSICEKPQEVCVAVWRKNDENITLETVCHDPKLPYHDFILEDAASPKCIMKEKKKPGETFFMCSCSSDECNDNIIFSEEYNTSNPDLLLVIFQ

TGFβ, sequence (P01137 279-390): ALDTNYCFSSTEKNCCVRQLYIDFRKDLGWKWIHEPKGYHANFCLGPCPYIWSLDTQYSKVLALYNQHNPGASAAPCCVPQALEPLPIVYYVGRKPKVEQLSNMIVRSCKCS

In the case of TGFβ (from UniProt P01137), the Kd is listed as 0.05 nM.
